{"source": "patent US20250073311A1", "about": "“DOSAGE REGIME” (ZEALAND PHARMA A/S, priority 2021, published 2025)", "key": {"[1]": {"biological_target": "human glucagon-like peptide 1 receptor (GLP-1R) (human) (UniProt P43220)", "sequence (P43220 24-463)": "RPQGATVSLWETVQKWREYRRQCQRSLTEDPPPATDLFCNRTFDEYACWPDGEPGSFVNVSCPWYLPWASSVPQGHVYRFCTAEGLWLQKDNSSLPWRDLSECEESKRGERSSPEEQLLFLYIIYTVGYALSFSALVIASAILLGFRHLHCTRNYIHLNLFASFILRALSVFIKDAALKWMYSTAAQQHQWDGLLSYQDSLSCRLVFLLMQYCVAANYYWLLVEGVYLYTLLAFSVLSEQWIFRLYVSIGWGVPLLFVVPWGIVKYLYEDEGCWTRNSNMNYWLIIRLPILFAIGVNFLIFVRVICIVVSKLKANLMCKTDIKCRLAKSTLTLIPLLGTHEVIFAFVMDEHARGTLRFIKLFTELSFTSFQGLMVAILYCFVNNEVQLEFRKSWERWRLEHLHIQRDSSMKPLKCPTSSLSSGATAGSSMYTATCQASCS"}, "[2]": {"biological_target": "human GLP-2 receptor (hGLP2-R) (human) (UniProt O95838)"}, "[3]": {"biological_target": "human glucagon-like peptide 1 receptor (GLP-1R) (human, UniProt P43220)", "test": "cell-based or functional assay"}, "[4]": {"biological_target": "T1, human GLP-2 receptor (hGLP2-R) (human, UniProt O95838)", "T1 sequence": "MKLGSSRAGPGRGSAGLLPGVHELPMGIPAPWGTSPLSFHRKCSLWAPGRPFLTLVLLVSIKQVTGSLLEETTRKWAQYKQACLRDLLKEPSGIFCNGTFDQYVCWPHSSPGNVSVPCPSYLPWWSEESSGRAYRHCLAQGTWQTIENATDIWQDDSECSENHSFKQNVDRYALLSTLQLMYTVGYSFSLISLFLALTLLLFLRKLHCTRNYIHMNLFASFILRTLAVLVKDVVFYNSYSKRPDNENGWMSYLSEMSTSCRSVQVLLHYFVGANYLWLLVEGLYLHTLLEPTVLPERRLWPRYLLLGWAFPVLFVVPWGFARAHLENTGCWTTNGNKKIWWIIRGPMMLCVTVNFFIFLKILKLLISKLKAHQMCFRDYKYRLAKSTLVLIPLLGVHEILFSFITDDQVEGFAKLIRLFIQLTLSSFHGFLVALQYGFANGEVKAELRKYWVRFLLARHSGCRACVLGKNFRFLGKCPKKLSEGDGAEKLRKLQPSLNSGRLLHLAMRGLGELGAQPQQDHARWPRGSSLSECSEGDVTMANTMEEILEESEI", "test": "cell-based or functional assay"}}, "note": "Numbered stars: 1 amine (or outer) side, 2 acyl side, 3 side chain; on linkers, the order of the positions; unused ones are H or OH. Square brackets hold non-standard residues; d marks the D form. Side chains are listed from the residue outwards. Ends that are not written are not given here. * marks the point of attachment. C20 diacid = O=C(O)CCCCCCCCCCCCCCCCCCC(=O)*; C18 diacid = O=C(O)CCCCCCCCCCCCCCCCC(=O)*; γGlu = O=C(O)[C@H](CCC(=O)[*:2])N[*:1]; AEEA = NCCOCCOCC(=O)O; Aib = CC(C)(N)C(=O)O", "data": [{"binder": "H[Aib]EGSFSSELATILDK([γGlu-C18 diacid])QAARDFIAWLIQHKITD (ends and bridges not checked)", "note": "[reference compound B]", "values": [{"measurement": "EC50 GLP-1 (nM), cAMP AlphaScreen", "setting": "[1]", "value": 3.9, "unit": "nM"}, {"measurement": "EC50 GLP-2 (nM), cAMP AlphaScreen", "setting": "[2]", "value": 0.28, "unit": "nM"}]}, {"binder": "H-H[Aib]EGSFTSELATILDEQAAK([AEEA-AEEA-γGlu-C20 diacid])DFIAWLIEHKITD-OH", "note": "[Compound 45]", "values": [{"measurement": "EC50 GLP-1 (nM), cAMP AlphaScreen", "setting": "[3]", "value": 1.4, "unit": "nM"}, {"measurement": "EC50 GLP-2 (nM), cAMP AlphaScreen", "setting": "[4]", "value": 0.36, "unit": "nM"}]}, {"binder": "H-H[Aib]EGTFTSELATILDEQAAK([AEEA-AEEA-γGlu-C20 diacid])DFIAWLIEHKITD-OH (SMILES CC[C@H](C)[C@H](NC(=O)[C@H](Cc1ccccc1)NC(=O)[C@H](CC(=O)O)NC(=O)[C@H](CCCCNC(=O)COCCOCCNC(=O)COCCOCCNC(=O)CC[C@H](NC(=O)CCCCCCCCCCCCCCCCCCC(=O)O)C(=O)O)NC(=O)[C@H](C)NC(=O)[C@H](C)NC(=O)[C@H](CCC(N)=O)NC(=O)[C@H](CCC(=O)O)NC(=O)[C@H](CC(=O)O)NC(=O)[C@H](CC(C)C)NC(=O)[C@@H](NC(=O)[C@@H](NC(=O)[C@H](C)NC(=O)[C@H](CC(C)C)NC(=O)[C@H](CCC(=O)O)NC(=O)[C@H](CO)NC(=O)[C@@H](NC(=O)[C@H](Cc1ccccc1)NC(=O)[C@@H](NC(=O)CNC(=O)[C@H](CCC(=O)O)NC(=O)C(C)(C)NC(=O)[C@@H](N)Cc1c[nH]cn1)[C@@H](C)O)[C@@H](C)O)[C@@H](C)O)[C@@H](C)CC)C(=O)N[C@@H](C)C(=O)N[C@@H](Cc1c[nH]c2ccccc12)C(=O)N[C@@H](CC(C)C)C(=O)N[C@H](C(=O)N[C@@H](CCC(=O)O)C(=O)N[C@@H](Cc1c[nH]cn1)C(=O)N[C@@H](CCCCN)C(=O)N[C@H](C(=O)N[C@H](C(=O)N[C@@H](CC(=O)O)C(=O)O)[C@@H](C)O)[C@@H](C)CC)[C@@H](C)CC)", "note": "[Compound 46]", "values": [{"measurement": "EC50 GLP-1 (nM), cAMP AlphaScreen", "setting": "[3]", "value": 0.26, "unit": "nM"}, {"measurement": "EC50 GLP-2 (nM), cAMP AlphaScreen", "setting": "[4]", "value": 0.38, "unit": "nM"}]}, {"binder": "H[Aib]DGSFSSELATILDK([γGlu-C18 diacid])QAARDFIAWLIQHKITD (ends and bridges not checked)", "note": "[reference compound A]", "values": [{"measurement": "EC50 GLP-1 (nM), cAMP AlphaScreen", "setting": "[1]", "value": 0.49, "unit": "nM"}, {"measurement": "EC50 GLP-2 (nM), cAMP AlphaScreen", "setting": "[2]", "value": 0.083, "unit": "nM"}]}]}
